# Results as given in PMC7817217.
# Molecular target: bACE2-Rm fused with eGFP, expressed on the surface of HEK293T cells (Rhinolophus macrotis)
# Assay: flow cytometry on cells
substance,measurement,value
SARS-CoV-2 spike protein receptor binding domain (RBD) (from UniProt P0DTC2 319-541) (domain or fragment),percent of cells stained positive,34.5%
